Assay results from paper PMC4233170.

Biological target: FLAG-tagged Rrn3 purified from infected Sf9 cells (not stated (human or mouse cDNA cloned)) (UniProt Q9NYV6)
UniProt Q9NYV6, sequence (Q9NYV6 whole entry): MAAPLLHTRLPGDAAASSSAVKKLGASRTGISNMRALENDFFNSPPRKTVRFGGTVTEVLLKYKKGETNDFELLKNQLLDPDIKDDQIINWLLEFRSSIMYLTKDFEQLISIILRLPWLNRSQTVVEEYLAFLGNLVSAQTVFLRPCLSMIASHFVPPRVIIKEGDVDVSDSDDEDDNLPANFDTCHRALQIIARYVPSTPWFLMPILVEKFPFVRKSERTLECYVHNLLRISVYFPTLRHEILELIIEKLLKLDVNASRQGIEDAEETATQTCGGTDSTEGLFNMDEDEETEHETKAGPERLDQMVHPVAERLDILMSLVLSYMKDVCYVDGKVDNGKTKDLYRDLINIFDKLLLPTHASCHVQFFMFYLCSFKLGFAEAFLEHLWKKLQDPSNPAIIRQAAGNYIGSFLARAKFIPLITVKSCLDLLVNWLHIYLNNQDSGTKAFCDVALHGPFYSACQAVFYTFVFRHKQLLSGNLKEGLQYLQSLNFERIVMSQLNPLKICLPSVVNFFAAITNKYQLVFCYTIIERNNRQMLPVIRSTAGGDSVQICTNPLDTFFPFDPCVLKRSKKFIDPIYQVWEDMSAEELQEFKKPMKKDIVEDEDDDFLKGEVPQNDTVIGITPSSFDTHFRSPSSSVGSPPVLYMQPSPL

B1: TAT-22mer: HIV TAT based cell penetrating peptide coupled to the 22mer of rpa43 (peptide)
peptide: GGGRKKRRQRRRNKVSSSHIGCLVHGCFNASIPK
B1 gave a labelling of the 47/45S pre-rRNA precursor in N1S1 cells treated with TAT-22mer of 70 % inhibition.
